# Assay results taken from patent publication US20250109212A1 (BIOSION, published 2025).
# Substitutions are numbered along the chain they refer to.
# T1: cynomolgus CD40-his protein (Biosion in house made) (cynomolgus, UniProt P25942 21-191 (human entry), limits assumed)
# T1 construct: also called Cyno CD40-his
# T1 chain: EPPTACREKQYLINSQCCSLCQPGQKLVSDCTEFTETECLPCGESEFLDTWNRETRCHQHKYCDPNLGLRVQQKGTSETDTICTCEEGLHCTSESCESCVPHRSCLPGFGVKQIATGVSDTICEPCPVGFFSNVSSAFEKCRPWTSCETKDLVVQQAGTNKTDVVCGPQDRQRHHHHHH
# B1: BSI038×S-004 (bispecific antibody, human IgG2, kappa)
# heavy: EEELQVIQPDKSVSVAAGESAILHCTITSLIPVGPIQWFRGAGPARELIYNQREGHFPRVTTVSETTKRENMDFSISISNITPADAGTYYCVKFRKGSPDTEFKSGAGTELSVRAKPSAPVVSGPAARATPGGGGSGGGGSEVQLVESGGGLVKPGGSLRLSCAASGFTFSNYGISWVRQAPGKGLEWVSSISSGGDNTYYPDNVKGRFTISRDNAKNSLYLQMNSLRAEDTAVYYCARAGEKAMDYWGQGTLVTVSSASTKGPSVFPLAPCSRSTSESTAALGCLVKDYFPEPVTVSWNSGALTSGVHTFPAVLQSSGLYSLSSVVTVPSSNFGTQTYTCNVDHKPSNTKVDKTVERKCCVECPPCPAPPVAGPSVFLFPPKPKDTLMISRTPEVTCVVVDVSHEDPEVQFNWYVDGVEVHNAKTKPREEQFNSTFRVVSVLTVVHQDWLNGKEYKCKVSNKGLPAPIEKTISKTKGQPREPQVYTLPPSREEMTKNQVSLTCLVKGFYPSDIAVEWESNGQPENNYKTTPPMLDSDGSFFLYSKLTVDKSRWQQGNVFSCSVMHEALHNHYTQKSLSLSPGK
# light: EIVLTQSPATLSLSPGERATLSCRASQTINNNLHWYQQKPGQAPRLLIKYASQSISGIPARFSGSGSGTDFTLTISSLEPEDFAVYFCQQFSSWPLTFGGGTKVEIKRTVAAPSVFIFPPSDEQLKSGTASVVCLLNNFYPREAKVQWKVDNALQSGNSQESVTEQDSKDSTYSLSSTLTLSKADYEKHKVYACEVTHQGLSSPVTKSFNRGEC
# notes: SIRPαV2D1 variant M1 linked to N-terminus of each heavy chain of HuCD40-C1H1-V2 (human IgG2)
# B2: BSI038×S-002 (bispecific antibody, human IgG2, kappa)
# heavy: not shown
# light: B1 light
# notes: Wild-type SIRPαV2D1 linked to N-terminus of each heavy chain of HuCD40-C1H1-V2 (human IgG2)
# B3: BSI038×S-005 (bispecific antibody, human IgG2, kappa)
# heavy: B1 heavy with K68R, F103V
# light: B1 light
# notes: SIRPαV2D1 variant M2 linked to N-terminus of each heavy chain of HuCD40-C1H1-V2 (human IgG2)
# B4: SIRPαV2D1M1-Fc (IgG2) (Fc fusion)
# chain: EEELQVIQPDKSVSVAAGESAILHCTITSLIPVGPIQWFRGAGPARELIYNQREGHFPRVTTVSETTKRENMDFSISISNITPADAGTYYCVKFRKGSPDTEFKSGAGTELSVRAKPSAPVVSGPAARATPGGGGSGGGGSERKCCVECPPCPAPPVAGPSVFLFPPKPKDTLMISRTPEVTCVVVDVSHEDPEVQFNWYVDGVEVHNAKTKPREEQFNSTFRVVSVLTVVHQDWLNGKEYKCKVSNKGLPAPIEKTISKTKGQPREPQVYTLPPSREEMTKNQVSLTCLVKGFYPSDIAVEWESNGQPENNYKTTPPMLDSDGSFFLYSKLTVDKSRWQQGNVFSCSVMHEALHNHYTQKSLSLSPGK
# notes: also called SIRPαV2M1-Fc(IgG2)
# B5: SIRPαV2D1M2-Fc (IgG2) (Fc fusion)
# chain: B4 chain with K68R, F103V
# notes: also called SIRPαV2M2-Fc(IgG2)
# Target: T2, recombinant human CD40-his protein (Cat #: CD0-H5228, Acro biosystems) (human, UniProt P25942 21-193)
# T2 construct: Bought protein
# Test: SPR (Biacore T200), sample on Protein A chip, antigen-his analyte, 1:1 fit
# Text: (§1) The purified recombinant fusion proteins were characterized for their binding affinity and binding kinetics by Biacore T200 system (GE healthcare, Pittsburgh, PA, USA). The anti-CD40 antibody HuCD40-C1H1-V2 (having the heavy chain and the light chain of SEQ ID NOs: 19 and 20), Selicrelumab (an agonistic anti-CD40 antibody, Roche Inc., prepared in-house with heavy and light chains of SEQ ID NOs: 27 and 28), and SIRPα-Fc fusion proteins, including SIRPαV2D1M1-Fc (IgG2) (SEQ ID NO: 21, X1=I, X2=R, X3=T, X4=K, X5=F), SIRPαV2D1M2-Fc (IgG2) (SEQ ID NO: 21, X1=I, X2=R, X3=T, X4=R, X5=V), SIRPα-isoform2-Fc (SEQ ID NO: 25) were used as positive controls.
# (§2) A Protein A chip (Cat #: 29-1275-56, GE healthcare) was used for affinity determination. The recombinant fusion proteins of the disclosure and the positive controls each at the concentration of 2 μg/ml were respectively flowed onto the chip at a flow rate of 10 μl/min. Then, serially diluted recombinant human CD40-his proteins (Cat #: CD0-H5228, Acro biosystems), human CD47-his proteins (Cat #: CD7-H5227, Acro biosystems), cynomolgus CD40-his proteins (Biosion in house made, SEQ ID NO: 29) or cynomolgus CD47-his proteins (Cat #: CD7-C52H1, Acro biosystems), 2-fold dilution in HBS-EP⁺ buffer (provided by Biacore) with a starting concentration of 200 nM, were flowed onto the chip at a flow rate of 30 μl/min. The association kinetics was followed for 2 minutes and the dissociation kinetics was followed for 10 minutes. The association and dissociation curves were fit to a 1:1 Langmuir binding model using the Biacore evaluation software.
Kd [nM],koff [s⁻¹],kon [M⁻¹ s⁻¹],Binder
0.937,0.00164,1.75e+06,B1
0.729,0.00184,2.53e+06,B2
0.935,0.00165,1.77e+06,B3

# Target: T3, cynomolgus CD47-his protein (Cat #: CD7-C52H1, Acro biosystems) (cynomolgus, UniProt A0A2K5X523 19-139)
# T3 construct: Bought protein; also called Cyno CD47-his
# Test: as above
# Text: as §1, §2
Kd [nM],koff [s⁻¹],kon [M⁻¹ s⁻¹],Binder
6.08,0.000576,94800,B1
5.39,0.000495,91800,B3
4.88,0.000371,76000,B4
7.01,0.000438,62400,B5

# Target: T1, cynomolgus CD40-his protein (Biosion in …)
# Test: as above
# Text: as §1, §2
Kd [nM],koff [s⁻¹],kon [M⁻¹ s⁻¹],Binder
2.16,0.00163,753000,B1
2.2,0.00167,759000,B3

# Target: T4, human CD47-his protein (Cat #: CD7-H5227, Acro biosystems) (human, UniProt Q08722 19-139)
# T4 construct: Bought protein
# Test: as above
# Text: as §1, §2
Kd [nM],koff [s⁻¹],kon [M⁻¹ s⁻¹],Binder
0.987,0.000586,594000,B1
6.31,0.00686,1.09e+06,B2
1.15,0.000598,518000,B3
0.952,0.000401,421000,B4
1.07,0.000417,388000,B5

# Target: T5, full length human CD40 (uniprot #P25942-1) on 293T-CD40 cells (human, UniProt P25942 21-277)
# T5 construct: whole, on cells
# Test: FACS on 293T-CD40 cells, detection with goat anti-human IgG (Fab)-PE, MFI
# Method: Following an incubation of 40 minutes at 4° C. in dark, cells were washed three times and resuspended in FACS buffer. Fluorescence was measured using a Becton Dickinson FACS Canto II-HTS equipment and plotted against the recombinant fusion protein or controls concentration. Data was analyzed using Graphpad Prism and EC₅₀ values were reported.
row,EC50 [nM],Binder
1,1.19,B2

# Target: human CD40-Fc protein (Cat #: CD0-H5253, ACRO Biosystems) (human, UniProt P25942 21-193)
# Test: dual-binding ELISA: human CD40-Fc coated, binder titrated, detected with human CD47-his and anti-His-HRP, OD450
# Method: The binding activity of the recombinant fusion proteins to human CD40 and CD47 was also tested by dual-binding ELISA assay. Briefly, 100 μl/well human CD40-Fc proteins (Cat #: CD0-H5253, ACRO Biosystems) were coated on 96-well plates at 0.2 μg/mL in PBS and incubated overnight at 2-8° C. The next day, the plates were washed 3 times using wash buffer (PBS+0.05% v/v Tween-20, PBST), and then blocked with block buffer (PBS+1% w/v BSA) for 3 hours at 37° C. The plates were then washed 3 times using the wash buffer.
# Serially diluted recombinant fusion proteins of the disclosure or controls (starting at 100 nM with a 6-fold serial dilution) in block buffer were added to the CD40-Fc bound plates, 100 μL per well, and incubated at 37° C. for 1 hour. The plates were washed 3 times using wash buffer, and then added and incubated for 1 hour at 37° C. with 100 μl/well 3 μg/mL human CD47-his protein (Cat #: CD7-H5227, ACRO Biosystems). The plates were washed again using wash buffer, added with 100 μl/well Anti-His tag Antibody (HRP) (1:2000 dilution in block buffer, Cat #: 105327-MM02T-H, Sino Biological) and incubated for 1 hour at 37° C. The plates were washed again using wash buffer. […] The absorbance was read using a microplate reader set to 450 nm, then the OD (450) values were plotted against the recombinant fusion protein or controls concentration. Data was analyzed using Graphpad Prism and EC₅₀ values were reported.
row,EC50 [nM],Binder
1,0.213,B1
2,0.689,B2
3,0.197,B3

# Target: human CD40-Fc protein (prepared in-house) (human)
# Test: competitive ELISA: human CD40-Fc coated, blocked ligand biotin-labeled human CD40L-his, OD(450-630)
# Method: (§3) The ability of the recombinant fusion proteins of the disclosure to block CD40-CD40L binding was measured in a competitive ELISA assay. Briefly, 100 μl/well human CD40-Fc proteins (prepared in-house with amino acid sequence of SEQ ID NO: 22) were coated on 96-well micro plates at 2 μg/mL in coating buffer (carbonate/bicarbonate buffer) and incubated overnight at 4° C. The next day, the plates were washed once with wash buffer (PBS+0.05% v/v Tween-20, PBST), and then blocked with 5% w/v non-fatty milk in PBST for 2 hours at 37° C. The plates were then washed 4 times using the wash buffer.
# Serially diluted recombinant fusion proteins of the disclosure or controls (starting at 10 µg/mL with a 5-fold serial dilution) in PBST with 2.5% w/v non-fatty milk were added to the CD40-Fc bound plates, 100 μl per well, and incubated at 37° C. for 40 minutes. The plates were washed 4 times using wash buffer, and then added and incubated for 40 minutes at 37° C. with 100 μl/well 95 ng/mL biotin-labeled human CD40L-his protein (Cat #: 10239-H08E, Sino biological). The plates were washed again using wash buffer, added with 100 μl/well streptavidin conjugated HRP (1:10000 dilution in PBST buffer, Cat #: 016-030-084, Jackson ImmunoResearch) and incubated for 40 minutes at 37° C. The plates were washed again using wash buffer. […] The absorbance was read on a microplate reader using the dual wavelength mode with 450 nm for TMB and 630 nm as the reference wavelength, then the OD (450-630) values were plotted against the recombinant fusion protein or controls concentration. Data was analyzed using Graphpad Prism and IC₅₀ values were reported.
row,IC50 [nM],Binder
1,~2.37,B2

# Target: T6, biotin-labeled human CD47-Fc (Biosion in house made) (human, biotin-labeled (sites not given))
# T6 construct: also called Human CD47-Fc protein
# Test: competitive ELISA: binder premixed with biotin-labeled human CD47-Fc, blocked partner coated human CD172a-Fc, OD(450-630)
# Method: as §3, with “CD47-CD172a” for “CD40-CD40L”, “CD172a-Fc” for “CD40-Fc”, “24)” for “22)”, “using” for “using the”
# Serially diluted recombinant fusion proteins of the disclosure or controls (starting at 100 nM with a 5-fold serial dilution) were mixed with 20 ng/ml biotin-labeled human CD47-Fc (Biosion in house made, SEQ ID NO: 23) in PBST with 2.5% w/v non-fatty milk. The mixtures were incubated at 37° C. for 40 minutes, and respectively added to the CD172a-Fc bound plates, 100 μl per well. The plates were incubated at 37° C. for 40 minutes, washed 4 times using wash buffer, added with 100 μl/well streptavidin conjugated HRP (1:10000 dilution in PBST buffer, Cat #: 016-030-084, Jackson ImmunoResearch), incubated for 40 minutes at 37° C., and washed again using wash buffer. […] The plates were read on a microplate reader using the dual wavelength mode with 450 nm for TMB and 630 nm as the reference wavelength, and the OD (450-630) values were plotted against the recombinant fusion protein or controls concentration. Data was analyzed using Graphpad Prism and IC₅₀ values were reported. Wild-type SIRPαV2D1-Fc (IgG2) (SEQ ID NO: 21, X1=V, X2=K, X3=S, X4=K, X5=F) was used as a positive control.
row,IC50 [nM],Binder
1,2.74,B1
2,76.8,B2
3,2.5,B3
4,8.87,B4
5,11.8,B5
